Experimental data published in PMC11456535, “Receptor activity-modifying protein modulation of parathyroid hormone-1 receptor function and signaling” (Frontiers in Pharmacology, 2024).
Like-named read-outs stand apart in the source and are kept apart here.

Assays:
[1] = target: PTH1R of the PathHunter CHO-K1 PTH1R β-arrestin cell line (UniProt Q03431)
[2] = target: PTH1R of the PathHunter CHO-K1 PTH1R β-arrestin cell line (UniProt Q03431); remark: listed apart in the source
[3] = target: T1, parathyroid hormone 1 receptor, C-tagged Citrine PTH1R (human, UniProt Q03431 27-593); experiment: FRET or BRET; sensitized-emission FRET imaging at the cell surface (50-pixel membrane ROIs) of fixed COS-7 cells co-transfected with C-tagged Citrine PTH1R (acceptor) and C-tagged Cerulean RAMP (donor); NFRET as % of a Cerulean-Citrine fusion; FRET-based stoichiometric analysis (Hoppe et al., 2002); conditions: partners not purified
T1 construct: parathyroid hormone 1 receptor (PTH1R), cDNA without its stop codon between HindIII and Not1 of pcDNA3.1 Citrine; also called parathyroid hormone receptor-1; PTHR1; source: COS-7, transfected (electroporation, pcDNA3.1), in fixed cells; not shown: Citrine, C-terminal, kept
T1 sequence (looked up): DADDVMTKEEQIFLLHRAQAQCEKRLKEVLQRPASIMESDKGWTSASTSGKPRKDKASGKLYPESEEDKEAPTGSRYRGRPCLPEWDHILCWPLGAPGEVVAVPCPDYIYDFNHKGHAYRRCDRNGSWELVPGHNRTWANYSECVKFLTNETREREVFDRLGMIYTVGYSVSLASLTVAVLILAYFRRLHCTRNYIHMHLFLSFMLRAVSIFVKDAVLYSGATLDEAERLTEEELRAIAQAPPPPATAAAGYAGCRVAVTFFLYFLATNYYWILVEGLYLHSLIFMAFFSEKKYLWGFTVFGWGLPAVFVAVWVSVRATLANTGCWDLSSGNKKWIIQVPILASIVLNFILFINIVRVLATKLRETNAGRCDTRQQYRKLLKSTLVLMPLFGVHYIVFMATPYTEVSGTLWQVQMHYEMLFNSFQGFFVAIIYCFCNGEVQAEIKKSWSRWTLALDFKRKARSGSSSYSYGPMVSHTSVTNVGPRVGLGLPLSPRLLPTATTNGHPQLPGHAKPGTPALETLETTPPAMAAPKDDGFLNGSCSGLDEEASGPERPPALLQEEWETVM

[4] = target: T1, parathyroid hormone 1 receptor, …; experiment: as above; conditions: partners not purified; remark: listed apart in the source
[5] = target: PTH1R of the PathHunter CHO-K1 PTH1R β-arrestin cell line (UniProt Q03431); remark: listed apart in the source

## PTHrP (1-108) (domain or fragment)
[1]
  efficacy, cAMP accumulation, CHO-K1 PTH1R + RAMP2 cells: 81.4%
  efficacy, cAMP accumulation, CHO-K1 PTH1R parental cells (mock): 72.8%
  pEC50, cAMP accumulation, CHO-K1 PTH1R + RAMP2 cells: 8.61 pEC50
  pEC50, cAMP accumulation, CHO-K1 PTH1R parental cells (mock): 8.25 pEC50

## PTHrP (1-141) (ligand)
[1]
  efficacy, cAMP accumulation, CHO-K1 PTH1R + RAMP2 cells: 85.3%
  efficacy, cAMP accumulation, CHO-K1 PTH1R + RAMP3 cells: 55.7%
  efficacy, cAMP accumulation, CHO-K1 PTH1R parental cells (mock): 74.9%
  pEC50, cAMP accumulation, CHO-K1 PTH1R + RAMP2 cells: 9.25 pEC50
  pEC50, cAMP accumulation, CHO-K1 PTH1R + RAMP3 cells: 7.86 pEC50
  pEC50, cAMP accumulation, CHO-K1 PTH1R parental cells (mock): 9.23 pEC50

## PTH (1-34) (peptide)
[2]
  efficacy, cAMP accumulation (Gαs), CHO-K1 PTH1R + RAMP2 cells: 79.4%
  efficacy, cAMP accumulation (Gαs), CHO-K1 PTH1R + RAMP3 cells: 65.1%
  efficacy, cAMP accumulation (Gαs), CHO-K1 PTH1R parental cells (mock): 68.1%
  efficacy, cAMP accumulation after pertussis toxin (cAMP + PTX), CHO-K1 PTH1R + RAMP2 cells: 71.6%
  efficacy, cAMP accumulation after pertussis toxin (cAMP + PTX), CHO-K1 PTH1R + RAMP3 cells: 28.7%
  efficacy, cAMP accumulation after pertussis toxin (cAMP + PTX), CHO-K1 PTH1R parental cells (mock): 33.5%
  efficacy, calcium influx (Gαq), CHO-K1 PTH1R + RAMP2 cells: 63.5%
  efficacy, calcium influx (Gαq), CHO-K1 PTH1R parental cells (mock): 19.8%
  efficacy, β-arrestin recruitment, CHO-K1 PTH1R + RAMP2 cells: 103%
  efficacy, β-arrestin recruitment, CHO-K1 PTH1R parental cells (mock): 6.31%
  pEC50, cAMP accumulation (Gαs), CHO-K1 PTH1R + RAMP2 cells: 9.55 pEC50
  pEC50, cAMP accumulation (Gαs), CHO-K1 PTH1R + RAMP3 cells: 8.55 pEC50
  pEC50, cAMP accumulation (Gαs), CHO-K1 PTH1R parental cells (mock): 9.3 pEC50
  pEC50, cAMP accumulation after pertussis toxin (cAMP + PTX), CHO-K1 PTH1R + RAMP2 cells: 10 pEC50
  pEC50, cAMP accumulation after pertussis toxin (cAMP + PTX), CHO-K1 PTH1R + RAMP3 cells: 8.48 pEC50
  pEC50, cAMP accumulation after pertussis toxin (cAMP + PTX), CHO-K1 PTH1R parental cells (mock): 8.9 pEC50
  pEC50, calcium influx (Gαq), CHO-K1 PTH1R + RAMP2 cells: 8.21 pEC50
  pEC50, calcium influx (Gαq), CHO-K1 PTH1R parental cells (mock): 8.9 pEC50
  pEC50, β-arrestin recruitment, CHO-K1 PTH1R + RAMP2 cells: 8.19 pEC50
  pEC50, β-arrestin recruitment, CHO-K1 PTH1R parental cells (mock): 8.6 pEC50

B1: receptor activity-modifying protein 2, C-tagged Cerulean RAMP2 (natural protein, human, UniProt O60895 43-175, looked up)
chain: QPLPTTGTPGSEGGTVKNYETAVQFCWNHYKDQMDPIEKDWCDWAMISRPYSTLRDCLEHFAELFDLGFPNPLAERIIFETHQIHFANCSLVQPTFSDPPEDVLLAMIIAPICLIPFLITLVVWRSKDSEAQA
notes: RAMP2, cDNA without its stop codon between Kpn1 and Not1 of pcDNA3.1 Cerulean; source: COS-7, transfected (electroporation, pcDNA3.1), in fixed cells; not shown: Cerulean, C-terminal, kept
[3]
  stoichiometry N: ~1 RAMP2 per PTH1R
[4]
  R (molar ratio of acceptor to donor): 1.27 ± 0.31 PTH1R (acceptor) per RAMP2 (donor)
  cell membrane NFRET relative to cer-cit fusion: 48.8 ± 4.1%

B2: PTH (1-84) (ligand)
chain: SVSEIQLMHNLGKHLNSMERVEWLRKKLQDVHNFVALGAPLAPRDAGSQRPRKKEDNVLVESHEKSLGEADKADVNVLTKAKSQ
[5]
  efficacy, cAMP accumulation (Gαs), CHO-K1 PTH1R + RAMP2 cells: 95.5%
  efficacy, cAMP accumulation (Gαs), CHO-K1 PTH1R + RAMP3 cells: 72.2%
  efficacy, cAMP accumulation (Gαs), CHO-K1 PTH1R parental cells (mock): 86.6%
  efficacy, cAMP accumulation after pertussis toxin (cAMP + PTX), CHO-K1 PTH1R + RAMP2 cells: 94.3%
  efficacy, cAMP accumulation after pertussis toxin (cAMP + PTX), CHO-K1 PTH1R + RAMP3 cells: 71.5%
  efficacy, cAMP accumulation after pertussis toxin (cAMP + PTX), CHO-K1 PTH1R parental cells (mock): 85.5%
  efficacy, calcium influx (Gαq), CHO-K1 PTH1R + RAMP2 cells: 82.2%
  efficacy, β-arrestin recruitment, CHO-K1 PTH1R + RAMP2 cells: 104%
  efficacy, β-arrestin recruitment, CHO-K1 PTH1R parental cells (mock): 6.08%
  pEC50, cAMP accumulation (Gαs), CHO-K1 PTH1R + RAMP2 cells: 9.24 pEC50
  pEC50, cAMP accumulation (Gαs), CHO-K1 PTH1R + RAMP3 cells: 7.55 pEC50
  pEC50, cAMP accumulation (Gαs), CHO-K1 PTH1R parental cells (mock): 8.2 pEC50
  pEC50, cAMP accumulation after pertussis toxin (cAMP + PTX), CHO-K1 PTH1R + RAMP2 cells: 9.01 pEC50
  pEC50, cAMP accumulation after pertussis toxin (cAMP + PTX), CHO-K1 PTH1R + RAMP3 cells: 7.51 pEC50
  pEC50, cAMP accumulation after pertussis toxin (cAMP + PTX), CHO-K1 PTH1R parental cells (mock): 7.8 pEC50
  pEC50, calcium influx (Gαq), CHO-K1 PTH1R + RAMP2 cells: 7.38 pEC50
  pEC50, β-arrestin recruitment, CHO-K1 PTH1R + RAMP2 cells: 8.1 pEC50
  pEC50, β-arrestin recruitment, CHO-K1 PTH1R parental cells (mock): 8.4 pEC50

B3: receptor activity-modifying protein 3, C-tagged Cerulean RAMP3 (natural protein, human, UniProt O60896 24-148, looked up)
chain: RAGGCNETGMLERLPLCGKAFADMMGKVDVWKWCNLSEFIVYYESFTNCTEMEANVVGCYWPNPLAQGFITGIHRQFFSNCTVDRVHLEDPPDEVLIPLIVIPVVLTVAMAGLVVWRSKRTDTLL
notes: RAMP3, cDNA without its stop codon between Kpn1 and Not1 of pcDNA3.1 Cerulean; source: COS-7, transfected (electroporation, pcDNA3.1), in fixed cells; not shown: Cerulean, C-terminal, kept
[3]
  stoichiometry N: ~2 RAMP3 per PTH1R
[4]
  R (molar ratio of acceptor to donor): 0.37 ± 0.06 PTH1R (acceptor) per RAMP3 (donor)
  cell membrane NFRET relative to cer-cit fusion: 32 ± 4.7%
